According to patent US20170051285A1, “COMPOSITIONS AND METHODS OF USING SAME FOR REDUCING RESISTANCE TO MOSQUITO LARVICIDES” (priority 2014, published 2017):
“Also recorded” adds a separate entry of the source. Where two headings read alike, the source gives them in different places.

How the values were obtained:
Type in all cases: in vivo, Aedes aegypti
[1] = test system: Ae. aegypti larvae (Rockefeller and Rio de Janeiro strains); experiment: Temephos larval susceptibility bioassay (WHO methodology)
Protocol: (§1) First (L1), Second (L2) or Third (L3) instar larvae were treated (in groups of 100 larvae) in a final volume of 3 mL of autoclaved water with sodium channel (AAEL008297), PgP (AAEL010379), Ago3 (AAEL007823), and Aub (AAEL007698) dsRNA (0.5 μg/μL), or AAEL005112, AAEL003446, AAEL007815 and AAEL002202 dsRNA (0.1 μg/μL). The control group was kept in 3 ml sterile water only. Larvae were soaked in the dsRNA solutions for 24 hours at 27° C., and were then transferred into new containers (200 larvae/1000 mL of chlorine-free tap water), which were also maintained at 27° C., and provided […] lab dog/cat diet (Purina Mills) suspended in water as a source of food on a daily basis. After soaking procedure, the larvae were reared until third instar and divided in […] with 10-20 larvae in each cup (final volume of 100 mL) or were divided immediately after soaking. Six replicas were treated with the lethal concentration 50 (0.00573 ppm) of temephos and 2 replicas with ethanol only (control group). Mortality was recorded after 24 and 48 hours. See Flowcharts 1 and 2 (FIGS. 1 and 2, respectively).
Susceptibility tests were carried out according to the methodology proposed by the World Health Organization (WHO). In order to characterize the status of Temephos resistance in Ae. aegypti (Rio de Janeiro) strain, the present inventors first determined the lethal concentration LC99 (concentration able to kill 99% of the larvae) using the susceptible strain (Rockfeller) (see FIG. 5: 0.01401 ppm). Then, bioassays with the Rio de Janeiro strain were performed using a diagnostic concentration of 0.0282 ppm of Temephos, which corresponded to twice the lethal concentration, 99% (LC99), determined for this susceptible strain. According to WHO, when the field population is treated with the diagnostic dose and the mortality rates are equal to or higher than 98%, the population is considered susceptible, between 80% and 98%, with alterations in susceptibility, and below 80%, resistant [WHO (1981) WHO/VBC/81.807]. […]

[2] = test system: Ae. aegypti female mosquitoes (Rockefeller and Rio de Janeiro strains); experiment: CDC bottle bioassay with deltamethrin, adult females; settings: 2 μg/mL deltamethrin; for mortality at 2 µg/mL: Aedes aegypti, read-out: mortality at diagnostic dosage
Protocol: FIGS. 14A-C are graphs illustrating the dose-response curves for 3- to 5-day-old Aedes aegypti female mosquitoes on insecticide-susceptible Rockefeller strain (FIG. 14A) and on insecticide-resistant Rio de Janeiro strain (FIG. 14B). Mosquitoes were exposed to different concentrations of deltamethrin in 250-mL glass bottles for up to 24 hours and the percentage of mortality for each time point is shown. FIG. 14C, comparison of the mortality rates of female mosquitoes from Rockefeller (Rock) and Rio de Janeiro (RJ) strains exposed to 2 μg/mL of deltamethrin for different time-points. Data represent mean values of three replicates with standard deviation.
Bottles were prepared following the Brogdon and McAllister (1998) protocol [Brogdon and McAllister (1998) Emerg Infect Dis 4:605-613]. Fifteen-twenty non-blood-fed females from each site were introduced in 250 mL glass bottles impregnated with different concentrations of deltamethrin (Sigma-Aldrich) in 1 ml acetone. Each test consisted of four impregnated bottles and one control bottle. The control bottle contained acetone with no insecticide. At least three tests were conducted for each insecticide and population. Immediately prior to use, all insecticide solutions were prepared fresh from stock solutions. At 15, 30 and 45 min intervals, the number of live and dead mosquitoes in each bottle was recorded. The mortality criteria included mosquitoes with difficulties flying or standing on the bottle's surface. Mosquitoes that survived the appropriate dose for insecticide were considered to be resistant [Brogdon and McAllister (1998), supra].
Therefore, it was concluded that 36.05% of the mosquitoes in this population (RJ) are resistant to deltamethrin.

[3] = test system: A. aegypti 3rd instar larvae, Rockefeller strain; experiment: Larvae feeding with food-containing dsRNA and bioassay with diflubenzuron; settings: diflubenzuron 2.5 μg/L
Protocol: FIG. 9A, 3rd instar larvae of Rockefeller strain were exposed to diflubenzuron (DBZ) pestanal larvicide (2.5 μg/L) in plastic cups containing 100 mL of dechlorinated tap water and fed simultaneously with dsRNA-containing food. Larval mortality was determined each 3 days. FIG. 9B, larvae were soaked with Sodium channel dsRNAs and exposed to diflubenzuron as described in FIG. 9A. Effects of diflubenzuron on adult emergence is shown as the percentage of emergence inhibition (100-100(T/C), where T is emergence (%) in DBZ-treated groups and C is emergence (%) in control groups. *p<0.01 (ANOVA, bar=S.D, n=4).
3rd instar larvae of Rockefeller strain were exposed to diflubenzuron (DBZ) pestanal larvicide (2.5 μg/L) in plastic cups containing 100 mL of dechlorinated tap water and fed simultaneously with dsRNA-containing food targeting PgP (FIG. 10A) or dsRNA-containing food targeting Sodium channel (FIG. 10B). Larval mortality was determined each 3 days. […]
Third instar larvae (in groups of 10 larvae) were exposed to one concentration (2.5 μg/L) of diflubenzuron pestanal (Sigma) in a final volume of 100 mL of chlorine-free tap water. […] The inhibition of emergence (%) was calculated according to the following formula: 100-100(T/C) where T is percent emergence in treated groups and C is percent emergence in control groups [Mulla et al. (1974) Proc. Papers Calif. […]

[4] = test system: P-glycoprotein (AAEL010379) mRNA; experiment: qPCR of P-glycoprotein mRNA after dsRNA treatment of larvae
Protocol: as §1
(§2) Approximately 1000 ng first-strand cDNA obtained as described previously was used as template. The qPCR reactions were performed using SYBR® Green PCR Master Mix (Applied Biosystems) following the manufacturer's instructions. […] Raw quantification cycle (Cq) values normalized against those of the tubulin and S7 standards were then used to calculate the relative expression levels in samples using the 2^−ΔΔCt method previously described [Livak & Schmittgen (2001) Methods. […]
(§3) Approximately 1000 ng first-strand cDNA obtained as described previously was used as template. […] Raw quantification cycle (Cq) values normalized against those of the tubulin and S7 standards were then used to calculate the relative expression levels in samples using the 2^−ΔΔCt method [Livak & Schmittgen, (2001) Methods. […]

[5] = test system: Argonaute-3 (AAEL007823) mRNA; experiment: qPCR of Ago-3 mRNA after dsRNA treatment of larvae
Protocol: as §1, §2, §3

[6] = 24 and 48 hours after end of 24 hour soaking of 3rd instar larvae
[7] = soaked as third instar larvae, reared until adult stage

## COP(=S)(OC)Oc1ccc(Sc2ccc(OP(=S)(OC)OC)cc2)cc1 [Temephos]
[1]; Aedes aegypti, read-out: mortality at diagnostic concentration
  mortality at 0.0282 ppm: 60%
[1]; LC50 used to treat third instar larvae, strain not stated
  lethal concentration 50: 0.00573 ppm
[1]; susceptible strain (Rockfeller)
  lethal concentration LC99 (concentration able to kill 99% of the larvae): 0.01401 ppm

## CC1(C)[C@H](C(=O)O[C@H](C#N)c2cccc(Oc3ccccc3)c2)[C@@H]1C=C(Br)Br [deltamethrin]
[2]; Rio de Janeiro strain
  mortality at 2 µg/mL: 64%
[2]; Rockfeller strain
  mortality at 2 µg/mL: 100%
[2]; Rio de Janeiro (RJ) population
  mosquitoes of the population resistant to deltamethrin: 36.05%

B1: P-glycoprotein dsRNA: dsRNA targeting Ae. aegypti P-glycoprotein gene AAEL010379, SEQ ID NO: 184 (nucleic acid)
chain: TGGAAAAGTTGACATTGACGGGATCACGACAACTGATTTCCAGCTTGGCCGCATACGTTCACAAATGGGTCTCGTATCGCAAGAACCTGTTCTGTTTGATCGCACCATCGCGGAAAATATTGCTTATGGTGACAACACTCGCGAGATAAGCATGCCGGAGATAATCGAGGCATCCAAAATGGCAAACATTCACGAATTCATCGTCAATCTACCGAAGGGGTATGACACTAGCCTAGGAACCAAAGGAGCTCAATTGTCTGGTGGCCAAAAGCAACGTATTGCTATAGCTCGTGCTTTGGTTAGAAATCCACGAATCC
modifications: double stranded RNA
[3]; fed agarose cubes with 20 μg dsRNA once a day for 4 days
  viability of mosquito larvae 4 days after treatment with DBZ (FIGS. 10A-B): reduced significantly the viability of mosquito larvae
[3]; fed dsRNA-containing food simultaneously
  susceptibility to diflubenzuron: larvae mortality and adult emergence (FIGS. 9A-B): increases its susceptibility to diflubenzuron insecticide
[4]; [6]
  PgP mRNA levels after the end of dsRNA treatment (FIG. 19A): decreased mRNA levels
[4]; larvae soaked 24 hours in dsRNA, temephos bioassay at third instar, versus water
  P-glycoprotein mRNA expression by qPCR (FIG. 7): induced gene silencing; also recorded: decrease in mRNA expression level
[4]; [7]
  PgP mRNA expression in adult mosquitoes (FIG. 20A): reached normal levels

B2: Ago-3 dsRNA: dsRNA targeting Ae. aegypti Argonaute-3 gene AAEL007823, SEQ ID NO: 185 (nucleic acid)
chain: CCCCGTCGACGGCCACGAAGTTACGATCAAGATCATTTACAAGCGCAAACAGCGAATGAGCGAGAACATTCAATTCTACAACATTCTCTTCCAACGCATTATGAAAGTCCTGAAGATGGTCGAGATGGGTCGTAAGAACTTTGACCCCTCGGCCCCGAAACTGATTCCGCAGCATCGTCTGGAGATCTGGCCGGGATACGTTAGCGCTGTGGACGAATATGAGGGCGGCTTGATGTTGAATCTCGACGTGTCCCATCGTGTGCTGCTCCAGACGACGGTTTTGGATCACATCCGAACGCTGGCAAGGGCCAATCCCCAAGATTACAAAAACATGGCCACCAAATCGCTGCTGGGAGCCGTTATATTGACCCGA
modifications: double stranded RNA
[5]; [6]
  Ago3 mRNA levels after the end of dsRNA treatment (FIG. 19B): decreased mRNA levels
[5]; RJ third instar larvae soaked 24 hours, after treatment with Temephos, versus water
  Ago-3 mRNA expression by qPCR (FIG. 8B): induced gene silencing; also recorded: reduction in the mRNA levels
[5]; [7]
  Ago3 mRNA expression in adult mosquitoes (FIG. 20B): reached normal levels
